Target: T1, TA1 (OsmtSSB-1a) (Oryza sativa)
T1 chain: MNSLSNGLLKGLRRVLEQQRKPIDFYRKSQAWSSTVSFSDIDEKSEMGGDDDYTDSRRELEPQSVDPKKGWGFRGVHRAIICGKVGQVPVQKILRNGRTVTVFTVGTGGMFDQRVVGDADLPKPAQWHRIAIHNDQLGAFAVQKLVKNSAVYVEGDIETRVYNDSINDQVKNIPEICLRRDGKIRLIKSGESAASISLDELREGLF
Experiment: EMSA; 2 ug protein, 750 amol probe, room temperature 10 min; competed by 2x, 20x, 200x unlabelled ssDNA
Conditions: tags: N-terminal 6xHis (pET-30a), expressed in E. coli; label: 3' biotin (biotinylated CTP)
Description: The affinity of purified 6×His-TA1 protein for ssDNA was determined using an EMSA (Thermo Cat. No. 20148X) as described in general terms by Reddy et al. (2001). A 45-nucleotide single-stranded oligonucleotide (SEQ ID NO:60) was labelled at the 3′ end with biotinylated CTP (Thermo Cat. No. 89818) according to the manufacturer's instructions. Recombinant 6×His-TA1 protein (2 μg) was added to 750 attomoles of biotin-labelled oligonucleotide and the mixture was incubated at room temperature for 10 min. A control sample lacked the 6×His-TA1 protein was applied to lane 1 in FIG. 11. Separate reactions were carried out in the presence of a 60-bp double-stranded DNA (dsDNA; control fragment from Thermo EMSA kit) to determine if the mobility shift was specific for ssDNA. Binding reaction products were separated by electrophoresis in a 5% native polyacrylamide gel in 0.5×TBE (Bio-Rad) and transferred to a nylon membrane (Bio-Rad). DNA bands were visualized using streptavidin-conjugated horseradish peroxidase (Thermo).

B1: 45-nt EMSA ssDNA probe (ssDNA)
DNA: ACTCCCTCTCCCTTGCGGATTCGAATGGTAGTACATTCTCTTCGA
binding result: binds
